Laboratory results taken from PMC3919030.

Columns and labels:
Settings in all cases: remark: other sources report otherwise
[1] = biological target: T1, S. cerevisiae Vps4p (wild type) (S. cerevisiae), P52917; assay: SEC
T1 chain: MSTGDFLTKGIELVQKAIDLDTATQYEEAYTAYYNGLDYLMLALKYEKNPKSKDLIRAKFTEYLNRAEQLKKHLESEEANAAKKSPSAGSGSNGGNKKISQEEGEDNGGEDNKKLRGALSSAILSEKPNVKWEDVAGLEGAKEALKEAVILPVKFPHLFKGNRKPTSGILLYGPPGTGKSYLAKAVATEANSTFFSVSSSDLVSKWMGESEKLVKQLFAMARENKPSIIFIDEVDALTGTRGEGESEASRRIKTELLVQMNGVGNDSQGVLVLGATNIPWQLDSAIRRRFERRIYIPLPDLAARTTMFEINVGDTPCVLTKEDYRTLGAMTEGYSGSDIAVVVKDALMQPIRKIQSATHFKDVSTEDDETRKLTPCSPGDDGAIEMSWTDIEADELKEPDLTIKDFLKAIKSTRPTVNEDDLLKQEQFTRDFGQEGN

[2] = biological target: T1, S. cerevisiae Vps4p (wild type) (S. …); assay: AUC
[3] = biological target: T1, S. cerevisiae Vps4p (wild type) (S. …); assay: SEC
[4] = biological target: T1, S. cerevisiae Vps4p (wild type) (S. …); assay: SEC
[5] = biological target: T1, S. cerevisiae Vps4p (wild type) (S. …); assay: AUC
[6] = biological target: T1, S. cerevisiae Vps4p (wild type) (S. …); assay: SEC

Measured: stoichiometry N

B1: S. cerevisiae Vps4p (wild type), P52917 1-437 (enzyme)
chain: MSTGDFLTKGIELVQKAIDLDTATQYEEAYTAYYNGLDYLMLALKYEKNPKSKDLIRAKFTEYLNRAEQLKKHLESEEANAAKKSPSAGSGSNGGNKKISQEEGEDNGGEDNKKLRGALSSAILSEKPNVKWEDVAGLEGAKEALKEAVILPVKFPHLFKGNRKPTSGILLYGPPGTGKSYLAKAVATEANSTFFSVSSSDLVSKWMGESEKLVKQLFAMARENKPSIIFIDEVDALTGTRGEGESEASRRIKTELLVQMNGVGNDSQGVLVLGATNIPWQLDSAIRRRFERRIYIPLPDLAARTTMFEINVGDTPCVLTKEDYRTLGAMTEGYSGSDIAVVVKDALMQPIRKIQSATHFKDVSTEDDETRKLTPCSPGDDGAIEMSWTDIEADELKEPDLTIKDFLKAIKSTRPTVNEDDLLKQEQFTRDFGQEGN
6: all assays above
